Measured values: patent US20140087995A1 (published 2014)
Numbering of substitutions follows the chain as printed. Numbered stars: 1 amine (or outer) side, 2 acyl side, 3 side chain; on linkers, the order of the positions; unused ones are H or OH. Bridge positions count the residues as written; N and C are the ends. Side chains are listed from the residue outwards. Ends that are not written are not given here. * marks the point of attachment. C20 diacid = O=C(O)CCCCCCCCCCCCCCCCCCC(=O)*; γGlu = O=C(O)[C@H](CCC(=O)[*:2])N[*:1]

T1: human calcitonin receptor (human, UniProt P30988 25-474)
T1 construct: whole, on cells; Assay used cell membranes of the transfected BHK cells; also called hCTR; hCT
T1 sequence (looked up): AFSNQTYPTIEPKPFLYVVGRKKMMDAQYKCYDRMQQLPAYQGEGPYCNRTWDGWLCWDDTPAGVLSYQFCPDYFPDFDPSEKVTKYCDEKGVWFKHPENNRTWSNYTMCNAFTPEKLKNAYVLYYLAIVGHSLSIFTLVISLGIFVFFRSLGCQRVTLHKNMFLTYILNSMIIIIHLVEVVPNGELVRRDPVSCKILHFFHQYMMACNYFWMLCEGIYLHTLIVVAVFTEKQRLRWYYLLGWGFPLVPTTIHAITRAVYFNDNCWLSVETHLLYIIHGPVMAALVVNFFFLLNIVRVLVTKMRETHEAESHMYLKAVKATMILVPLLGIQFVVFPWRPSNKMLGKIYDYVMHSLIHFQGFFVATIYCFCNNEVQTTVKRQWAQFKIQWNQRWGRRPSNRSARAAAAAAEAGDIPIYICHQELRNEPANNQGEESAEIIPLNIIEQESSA

T2: human calcitonin receptor (human, UniProt P30988 25-474)
T2 construct: whole, on cells; Used as cell membranes prepared from the transfected BHK cells (Assay VII), not as intact cells; also called hCTR; hCT
T2 sequence (looked up): T1 sequence (looked up)

B1: N^ε1-[(4S)-4-carboxy-4-(19-carboxynonadecanoylamino)butanoyl]-[His14,Arg17,Pro21,Pro27,Pro31]-h-amylin (peptide)
peptide: K([γGlu-C20 diacid])CNTATCATQRLAHFLRHSSPNFGAIPSSTPVGSNTY-NH2
modifications: disulfide 2-7; N-terminus assumed
SMILES: CC[C@H](C)[C@H](NC(=O)[C@H](C)NC(=O)CNC(=O)[C@H](Cc1ccccc1)NC(=O)[C@H](CC(N)=O)NC(=O)[C@@H]1CCCN1C(=O)[C@H](CO)NC(=O)[C@H](CO)NC(=O)[C@H](Cc1c[nH]cn1)NC(=O)[C@H](CCCNC(=N)N)NC(=O)[C@H](CC(C)C)NC(=O)[C@H](Cc1ccccc1)NC(=O)[C@H](Cc1c[nH]cn1)NC(=O)[C@H](C)NC(=O)[C@H](CC(C)C)NC(=O)[C@H](CCCNC(=N)N)NC(=O)[C@H](CCC(N)=O)NC(=O)[C@@H](NC(=O)[C@H](C)NC(=O)[C@@H]1CSSC[C@H](NC(=O)[C@@H](N)CCCCNC(=O)CC[C@H](NC(=O)CCCCCCCCCCCCCCCCCCC(=O)O)C(=O)O)C(=O)N[C@@H](CC(N)=O)C(=O)N[C@@H]([C@@H](C)O)C(=O)N[C@@H](C)C(=O)N[C@@H]([C@@H](C)O)C(=O)N1)[C@@H](C)O)C(=O)N1CCC[C@H]1C(=O)N[C@@H](CO)C(=O)N[C@@H](CO)C(=O)N[C@H](C(=O)N1CCC[C@H]1C(=O)N[C@H](C(=O)NCC(=O)N[C@@H](CO)C(=O)N[C@@H](CC(N)=O)C(=O)N[C@H](C(=O)N[C@@H](Cc1ccc(O)cc1)C(N)=O)[C@@H](C)O)C(C)C)[C@@H](C)O
notes: Synthetic analogue; also called compound 62
B2: N^ε1-[(4S)-4-carboxy-4-[[(4S)-4-carboxy-4-(19-carboxynonadecanoylamino)butanoyl]amino]butanoyl]-[Asp14,Arg17,Pro21,Pro27,Arg35]-h-amylin (peptide)
peptide: K([γGlu-γGlu-C20 diacid])CNTATCATQRLADFLRHSSPNFGAIPSSTNVGSRTY-NH2
modifications: disulfide 2-7; N-terminus assumed
SMILES: CC[C@H](C)[C@H](NC(=O)[C@H](C)NC(=O)CNC(=O)[C@H](Cc1ccccc1)NC(=O)[C@H](CC(N)=O)NC(=O)[C@@H]1CCCN1C(=O)[C@H](CO)NC(=O)[C@H](CO)NC(=O)[C@H](Cc1c[nH]cn1)NC(=O)[C@H](CCCNC(=N)N)NC(=O)[C@H](CC(C)C)NC(=O)[C@H](Cc1ccccc1)NC(=O)[C@H](CC(=O)O)NC(=O)[C@H](C)NC(=O)[C@H](CC(C)C)NC(=O)[C@H](CCCNC(=N)N)NC(=O)[C@H](CCC(N)=O)NC(=O)[C@@H](NC(=O)[C@H](C)NC(=O)[C@@H]1CSSC[C@H](NC(=O)[C@@H](N)CCCCNC(=O)CC[C@H](NC(=O)CC[C@H](NC(=O)CCCCCCCCCCCCCCCCCCC(=O)O)C(=O)O)C(=O)O)C(=O)N[C@@H](CC(N)=O)C(=O)N[C@@H]([C@@H](C)O)C(=O)N[C@@H](C)C(=O)N[C@@H]([C@@H](C)O)C(=O)N1)[C@@H](C)O)C(=O)N1CCC[C@H]1C(=O)N[C@@H](CO)C(=O)N[C@@H](CO)C(=O)N[C@H](C(=O)N[C@@H](CC(N)=O)C(=O)N[C@H](C(=O)NCC(=O)N[C@@H](CO)C(=O)N[C@@H](CCCNC(=N)N)C(=O)N[C@H](C(=O)N[C@@H](Cc1ccc(O)cc1)C(N)=O)[C@@H](C)O)C(C)C)[C@@H](C)O
notes: Synthetic analogue of human amylin; also called compound 52
B3: N^α1 N^α1-[(4S)-4-carboxy-4-[[(4S)-4-carboxy-4-(19-carboxynonadecanoylamino)butanoyl]amino]butanoyl]-[Glu14,Arg17,Pro21,Pro27]-h-amylin (peptide)
peptide: {C20 diacid-γGlu-γGlu}-KCNTATCATQRLAEFLRHSSPNFGAIPSSTNVGSNTY-NH2
modifications: disulfide 2-7
SMILES: CC[C@H](C)[C@H](NC(=O)[C@H](C)NC(=O)CNC(=O)[C@H](Cc1ccccc1)NC(=O)[C@H](CC(N)=O)NC(=O)[C@@H]1CCCN1C(=O)[C@H](CO)NC(=O)[C@H](CO)NC(=O)[C@H](Cc1c[nH]cn1)NC(=O)[C@H](CCCNC(=N)N)NC(=O)[C@H](CC(C)C)NC(=O)[C@H](Cc1ccccc1)NC(=O)[C@H](CCC(=O)O)NC(=O)[C@H](C)NC(=O)[C@H](CC(C)C)NC(=O)[C@H](CCCNC(=N)N)NC(=O)[C@H](CCC(N)=O)NC(=O)[C@@H](NC(=O)[C@H](C)NC(=O)[C@@H]1CSSC[C@H](NC(=O)[C@H](CCCCN)NC(=O)CC[C@H](NC(=O)CC[C@H](NC(=O)CCCCCCCCCCCCCCCCCCC(=O)O)C(=O)O)C(=O)O)C(=O)N[C@@H](CC(N)=O)C(=O)N[C@@H]([C@@H](C)O)C(=O)N[C@@H](C)C(=O)N[C@@H]([C@@H](C)O)C(=O)N1)[C@@H](C)O)C(=O)N1CCC[C@H]1C(=O)N[C@@H](CO)C(=O)N[C@@H](CO)C(=O)N[C@H](C(=O)N[C@@H](CC(N)=O)C(=O)N[C@H](C(=O)NCC(=O)N[C@@H](CO)C(=O)N[C@@H](CC(N)=O)C(=O)N[C@H](C(=O)N[C@@H](Cc1ccc(O)cc1)C(N)=O)[C@@H](C)O)C(C)C)[C@@H](C)O
notes: also called compound 15
B4: N^α1-[(4S)-4-carboxy-4-(19-carboxynonadecanoylamino)butanoyl]-[Arg17,Pro21,Pro27,Glu35]-h-amylin (peptide)
peptide: KCNTATCATQRLANFLRHSSPNFGAIPSSTNVGSETY
modifications: C20 diacid-gGlu on the alpha amino group of the N-terminal Lys1; disulfide Cys2-Cys7; C-terminal amide
notes: also called compound 23
B5: N^α1-[(4S)-4-carboxy-4-(19-carboxynonadecanoylamino)butanoyl]-[Arg17,Pro21,Pro27,Lys35]-h-amylin (peptide)
peptide: B4 peptide with E35K
modifications: C20 diacid-gGlu on the alpha amino group of the N-terminal Lys1; disulfide Cys2-Cys7; C-terminal amide
notes: also called compound 34
B6: N^α1-[(4S)-4-carboxy-4-(19-carboxynonadecanoylamino)butanoyl]-[Arg17,Pro21,Pro27,Arg34]-h-amylin (peptide)
peptide: B4 peptide with S34R, E35N
modifications: C20 diacid-gGlu on the alpha amino group of the N-terminal Lys1; disulfide Cys2-Cys7; C-terminal amide
notes: also called compound 39
B7: N^α1-[(4S)-4-carboxy-4-(19-carboxynonadecanoylamino)butanoyl]-[Glu14,Arg17,Pro21,Pro26]-h-amylin (peptide)
peptide: {C20 diacid-γGlu}-KCNTATCATQRLAEFLRHSSPNFGAPLSSTNVGSNTY-NH2
modifications: disulfide 2-7
SMILES: CC(C)C[C@H](NC(=O)[C@H](CCCNC(=N)N)NC(=O)[C@H](CCC(N)=O)NC(=O)[C@@H](NC(=O)[C@H](C)NC(=O)[C@@H]1CSSC[C@H](NC(=O)[C@H](CCCCN)NC(=O)CC[C@H](NC(=O)CCCCCCCCCCCCCCCCCCC(=O)O)C(=O)O)C(=O)N[C@@H](CC(N)=O)C(=O)N[C@@H]([C@@H](C)O)C(=O)N[C@@H](C)C(=O)N[C@@H]([C@@H](C)O)C(=O)N1)[C@@H](C)O)C(=O)N[C@@H](C)C(=O)N[C@@H](CCC(=O)O)C(=O)N[C@@H](Cc1ccccc1)C(=O)N[C@@H](CC(C)C)C(=O)N[C@@H](CCCNC(=N)N)C(=O)N[C@@H](Cc1c[nH]cn1)C(=O)N[C@@H](CO)C(=O)N[C@@H](CO)C(=O)N1CCC[C@H]1C(=O)N[C@@H](CC(N)=O)C(=O)N[C@@H](Cc1ccccc1)C(=O)NCC(=O)N[C@@H](C)C(=O)N1CCC[C@H]1C(=O)N[C@@H](CC(C)C)C(=O)N[C@@H](CO)C(=O)N[C@@H](CO)C(=O)N[C@H](C(=O)N[C@@H](CC(N)=O)C(=O)N[C@H](C(=O)NCC(=O)N[C@@H](CO)C(=O)N[C@@H](CC(N)=O)C(=O)N[C@H](C(=O)N[C@@H](Cc1ccc(O)cc1)C(N)=O)[C@@H](C)O)C(C)C)[C@@H](C)O
notes: also called compound 7
B8: N^α1-[(4S)-4-carboxy-4-(19-carboxynonadecanoylamino)butanoyl]-[Arg17,Pro21,Pro27,His34]-h-amylin (peptide)
peptide: B4 peptide with S34H, E35N
modifications: C20 diacid-gGlu on the alpha amino group of the N-terminal Lys1; disulfide Cys2-Cys7; C-terminal amide
notes: also called compound 40
B9: N^α1-[2-[2-[2-[[2-[2-[2-[[(4S)-4-carboxy-4-(19-carboxynonadecanoylamino)butanoyl]amino]ethoxy]ethoxy]acetyl]amino]ethoxy]ethoxy]acetyl]-[Glu14,Arg17,Pro21,Pro27 … (peptide)
peptide: B4 peptide with N14E, E35N
modifications: C20 diacid-gGlu-2xOEG on the alpha amino group of the N-terminal Lys1; disulfide Cys2-Cys7; C-terminal amide
notes: also called compound 19
B10: N^α1-[(4S)-4-carboxy-4-(19-carboxynonadecanoylamino)butanoyl]-[Arg17,Pro21,Pro27,Pro31,Glu35]-h-amylin (peptide)
peptide: {C20 diacid-γGlu}-KCNTATCATQRLANFLRHSSPNFGAIPSSTPVGSETY-NH2
modifications: disulfide 2-7
SMILES: CC[C@H](C)[C@H](NC(=O)[C@H](C)NC(=O)CNC(=O)[C@H](Cc1ccccc1)NC(=O)[C@H](CC(N)=O)NC(=O)[C@@H]1CCCN1C(=O)[C@H](CO)NC(=O)[C@H](CO)NC(=O)[C@H](Cc1c[nH]cn1)NC(=O)[C@H](CCCNC(=N)N)NC(=O)[C@H](CC(C)C)NC(=O)[C@H](Cc1ccccc1)NC(=O)[C@H](CC(N)=O)NC(=O)[C@H](C)NC(=O)[C@H](CC(C)C)NC(=O)[C@H](CCCNC(=N)N)NC(=O)[C@H](CCC(N)=O)NC(=O)[C@@H](NC(=O)[C@H](C)NC(=O)[C@@H]1CSSC[C@H](NC(=O)[C@H](CCCCN)NC(=O)CC[C@H](NC(=O)CCCCCCCCCCCCCCCCCCC(=O)O)C(=O)O)C(=O)N[C@@H](CC(N)=O)C(=O)N[C@@H]([C@@H](C)O)C(=O)N[C@@H](C)C(=O)N[C@@H]([C@@H](C)O)C(=O)N1)[C@@H](C)O)C(=O)N1CCC[C@H]1C(=O)N[C@@H](CO)C(=O)N[C@@H](CO)C(=O)N[C@H](C(=O)N1CCC[C@H]1C(=O)N[C@H](C(=O)NCC(=O)N[C@@H](CO)C(=O)N[C@@H](CCC(=O)O)C(=O)N[C@H](C(=O)N[C@@H](Cc1ccc(O)cc1)C(N)=O)[C@@H](C)O)C(C)C)[C@@H](C)O
notes: also called compound 28

Experiments:
[1] = target: T1, human calcitonin receptor; assay: SPA radioligand competition (125I-calcitonin), membranes of BHK cells with human calcitonin receptor
How it was run: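 BHK hCTR membranes 35 ng/μL + SPA beads 0.05 mg/well; buffer 50 mM Hepes pH 7.4, 1 mM CaCl2, 5 mM MgCl₂, 0.1% OA, 0.02% Tween20. 120 min, 25° C., shaking. Scintillation count; IC50 by one-site binding competition.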

[2] = target: T2, human calcitonin receptor; assay: SPA competition against 125I-calcitonin, membranes with human calcitonin receptor (Assay VII)
Protocol: Membranes were prepared in the following way; the cells were rinsed with PBS and incubated with Versene for approximately 5 min before harvesting. The cells were flushed with PBS and the cell-suspension was centrifuged for 5 min at 1000 rpm. Cells were homogenized (Ultrathurrax) in a buffer containing 20 mM Na-HEPES and 10 mM EDTA (pH 7.4) and centrifuged at 20.000 rpm for 15 min. The resulting pellet was resuspended, homogenized and centrifuged (20.000 rpm, 15 min) in a buffer containing 20 mM Na-HEPES and 0.1 mM EDTA (pH 7.4, buffer 2). The resulting pellet was resuspended in buffer 2 and protein concentration was measured (BCA protein Assay, Pierce). The homogenate was kept cold during the whole procedure. The membranes were kept at −80° C. until use. Assay was performed in a 384 well Optiplate (PerkinElmer) in a total volume of 40 ul. Membranes were mixed with SPA beads. Final concentration of membranes 35 ng/μL final and Final concentration of SPA beads was 0.05 mg/well. Test-compounds were dissolved in DMSO and further diluted in assay buffer (50 mM Hepes, pH 7.4, 1 mM CaCl2, 5 mM MgCl₂, 0.1% OA and 0.02% Tween20). […] The final mixture was incubated for 120 min with shaking at 400 rpm at 25° C. prior to centrifugation (1500 rpm, 10 min). Samples were analyzed on TopCounter™ (Packard). The […] was calculated using (one site binding competition analysis) GraphPad Prism5 as a measure of receptor affinity.

Row | Binder | IC50 [1] | IC50 [2]
1 | B1 | 6.17 nM | 
2 | B2 | 56.9 nM | 
3 | B3 |  | 15.5 nM
4 | B4 |  | 21.8 nM
5 | B5 |  | 73.4 nM
6 | B6 |  | 19.3 nM
7 | B7 |  | 11.1 nM
8 | B8 |  | 17.1 nM
9 | B9 |  | 20.4 nM
10 | B10 |  | 12.5 nM
